# Measured values taken from PMC11488477, “TDP-43 Amyloid Fibril Formation via Phase Separation-Related and -Unrelated Pathways” (ACS Chemical Neuroscience, 2024).
# Target: the molecule itself
# Assay: thioflavin T fluorescence + negative-stain TEM; protein alone in buffer with ThT, 20 uM (higher at pH 4 and 5), pH 4-7, 0-300 mM NaCl, 1% DMSO, 96-well plate, 30 °C; long-period assays (Figure 5) incubated without shaking; self-assembly into amyloid fibrils
protein,measurement,value
"C-terminal domain of TDP-43 (residues 266-414), wild type (domain or fragment, UniProt Q13148 266-414, looked up, TDP-43, C-terminal domain (intrinsically disordered region), residues 266-414; UniProt entry Q13148; also called TDP-43's IDR; wild-type TDP-43) SNRQLERSGRFGGNPGGFGNQGGFGNSRGGGAGLGNNQGSNMGGGMNFGAFSINPAMMAAAQAALQSSWGMMGMLASQQNQSGPSGNNQNQGNMQREPNQAFGSGNNSYSGSNSGAAIGWGSASNAGSGSGFNGGFGSSMDSKSSGWGM",binding result,binds
